# Source: US20250282868A1 (ITEOS BELGIUM, published 2025)
# Changes are numbered by the printed parent chain.
# T1: human TREM2 (human, UniProt Q9NZC2 19-230)
# T1 construct: on THP-1 WT cells and M2a-like macrophages (endogenous) and on CHO or HEK293T cells overexpressing human TREM2 with DAP12; also called hTREM2
# T1 sequence: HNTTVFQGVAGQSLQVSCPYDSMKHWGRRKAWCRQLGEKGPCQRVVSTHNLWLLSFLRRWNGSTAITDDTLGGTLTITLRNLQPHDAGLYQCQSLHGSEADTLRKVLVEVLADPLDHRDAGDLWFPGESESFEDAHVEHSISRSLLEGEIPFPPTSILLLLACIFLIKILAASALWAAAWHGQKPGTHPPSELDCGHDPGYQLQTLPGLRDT
# T2: cynomolgus TREM2 (cynomolgus, UniProt A0A2K5UY34 49-260)
# T2 construct: also called cynoTREM2; cTREM2
# T2 sequence: T1 sequence with A10E, W60R, L89F, F125V, I157V, L193P, Y201H
# T3: mouse TREM2 (mouse, UniProt Q99NH8 19-227)
# T3 construct: whole, on cells
# T3 sequence (looked up): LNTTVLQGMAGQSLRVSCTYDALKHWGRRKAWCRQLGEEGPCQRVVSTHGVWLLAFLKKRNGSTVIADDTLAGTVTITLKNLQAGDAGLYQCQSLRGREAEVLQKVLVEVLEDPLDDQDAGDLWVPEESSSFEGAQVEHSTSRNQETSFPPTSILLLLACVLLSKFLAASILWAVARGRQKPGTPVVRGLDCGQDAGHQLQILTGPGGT
# B1: EOS006163 (antibody, V domains shown)
# VH: QVQLVQSGAEVKKPGSSVKVSCKASGGTFAQYAISWVRQAPGQGLEWMGVIIPDSGTANYAQKFQGRVTITADESTSTAYMELSSLRSEDTAVYYCARTQENTIFDIWGQGTMVTVSS
# VL: EIVLTQSPATLSLSPGERATLSCRASQSVSSYLAWFQQKPGQAPRLLIYDASNRATGIPARFSGSGSGTDFTLTISSLEPEDFAVYYCQQDYEWPITFGGGTKVEIK
# B2: EOS006171 (antibody, V domains shown)
# VH: QVQLVESGGGLVKPGGSLRLSCAASGFTFSDYYMSWIRQAPGKGLEWVSYISSSGSTIYYADSVKGRFTISRDNAKNSLYLQMNSLRAEDTAVYYCARLGGYYSLGPMDVWGQGTTVTVSS
# VL: B1 VL with F36Y, Y92S, E93A, W94F, I96F
# B3: EOS006166 (antibody, V domains shown)
# VH: EVQLVESGGGLVQPGRSLRLSCTASGFTFGDYAMSWFRQAPGKGLEWVGFIGSKAYGGTTEYTASVKGRFTISRDGSKSIAYLQMNSLKTEDTAVYYCARGKRYSYGYWHPAFDVWGQGTMVTVSS
# VL: DIQMTQSPSSLSASVGDRVTITCQASQDITNYLNWYQQKPGKAPKLLIYDASNLETGVPSRFSGSGSGTDFTFTISSLQPEDIATYYCQQYDSYLTFGGGTKVEIK
# B4: EOS006176 (antibody, V domains shown)
# VH: EVQLLESGGGLVQPGGSLRLSCAASGFTFSTHAMTWVRQAPGKGLEWVSAISANAGKTYYADSVKGRFTISRDNSKNTLYLQMNSLRAEDTAVYYCASLRGGYEVGPTFDSWGQGTLVTVSS
# VL: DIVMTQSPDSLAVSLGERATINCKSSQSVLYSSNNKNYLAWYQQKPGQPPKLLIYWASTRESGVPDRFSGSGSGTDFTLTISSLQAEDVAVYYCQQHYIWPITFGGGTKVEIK
# B5: EOS006178 (antibody, V domains shown)
# VH: B4 VH with T31N, H32Y, A33G, T35G, S111P
# VL: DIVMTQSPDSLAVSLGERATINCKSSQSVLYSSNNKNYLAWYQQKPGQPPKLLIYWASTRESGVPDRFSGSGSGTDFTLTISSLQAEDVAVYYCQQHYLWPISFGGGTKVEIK
# B6: EOS006181 (antibody, V domains shown)
# VH: B3 VH with G30D, Y32H, G107T, H110T
# VL: B3 VL
# B7: 6E7 (antibody, V domains shown)
# VH: EVQLVQSGAEVKKPGESLKISCKGSGYSFTSYWIAWVRQMPGKGLEWMGIIYPGDSDTRYSPSFQGQVTISADKSISTAYLQWSSLKASDTAMYFCARQRTFYYDSSDYFDYWGQGTLVTVSS
# VL: DIQMTQSPSSVSASVGDRVTITCRASQGISSWLAWYQQKPGKAPKLLIYAASSLQNGVPSRFSGSGSGTDFTLTISSLQPEDFATYFCQQADSFPRTFGQGTKLEIK
# B8: Ab52 (antibody, V domains shown)
# VH: QVQLVQSGAEVKKPGASVKVSCKASGYTFTSYYIHWVRQAPGQGLEWMGIINPSGGSTSYAQKFQGRVTMTRDTSTSTVYMELSSLRSEDTAVYYCAREADDSSGYPLGLDVWGQGTMVTVSS
# VL: EIVMTQSPATLSVSPGERATLSCRASQSVSSNLAWYQQKPGQAPRLLIYGASTRATGIPARFSGSGSGTEFTLTISSLQSEDFAVYYCQQVNSLPPTFGGGTKVEIK
# notes: benchmark anti-TREM2 antibody from WO2016023019A2
# B9: 14D3 (antibody, V domains shown)
# VH: EVKLLEFGGGLVQPGGSMRLSCAASGFTFTDFYMNWIRQPAGRAPEWLGLIRNKTKGYTTEYNRSVKGRFTISRDNTQNMLYLQMNSLRPEDTATYYCARIGVNNGGSLDYWGQGVMVTVSS
# VL: DILIIQSPASLTVSAGARVTMSCKSSQSLLYSENNQDYLAWYQQKPGQFPKLLIYGASNRHTGVPDRFTGSGSGTDFTLTISSVQAEDLADYYCEQTYSYPYTFGAGTKLELK
# B10: PN-37012 (antibody, V domains shown)
# VH: EVQLLESGGGLVQPGGSLRLSCAASGFTFSNYYMAWVRQAPGKGLEWVSSLTNSGGSTYYADSVKGRFTISRDNSKNTLYLQMNSLRAEDTAVYYCTREWAGSGYFDYWGQGTLVTVSS
# VL: DIQMTQSPSSLSASVGDRVTITCKASQNVGNNLAWYQQKPGKAPKLLIYYTSNRFTGVPSRFSGSGSGTDFTLTISSLQPEDFATYYCQRIYNSPWTFGQGTKLEIK
# notes: benchmark anti-TREM2 antibody from US20190309064
# Target: T1, human TREM2
# Experiment: flow cytometry, M2a-like macrophages, dose-response
# Protocol: (§1) M2a-like macrophages were produced in vitro from monocytes of healthy donors. Briefly, after PBMCs isolation from peripheral blood using Lymphoprep™ gradient, CD14+ cells were purified and seeded in presence of MCSF 50 ng/ml for 6 days. Macrophages were then cultured with IL-13 and IL-4 at a concentration of 20 ng/ml for two additional days and then used for a cell-based binding assay.
# (§2) M2a-like macrophages were incubated with anti-TREM2 antibodies (dose-response curve with 11 concentrations from 10 μg/ml to 0.0001 μg/ml) for 30 min at 4° C. After washing, bound antibodies were detected with a secondary anti-human IgG Fc PE-labelled for 30 min at 4° C. Fluorescence intensity was measured by flow cytometry. Equilibrium dissociation constant (kD) was then calculated for each antibody using median MFI normalized over isotype control.
row,Kd,Binder
1,0.15 nM,B1
2,2.8 nM,B2
3,1.21 nM,B3

# Target: T1, human TREM2
# Experiment: flow cytometry, M2a-like macrophages
# Protocol: as §1, §2
row,Fold over isotype,Binder
1,13.1 fold,B4
2,5.4 fold,B5
3,13 fold,B1
4,5.9 fold,B3
5,9.3 fold,B6

# Target: T1, human TREM2
# Experiment: flow cytometry, competition with LDL-Alexafluor-488 on CHO cells overexpressing human TREM2/DAP12
# Protocol: Exemplary anti-TREM2 antibodies were tested in order to characterize their ability to enter in competition with TREM2 ligand, LDL, on CHO overexpressing human TREM2/DAP12. Antibodies (dose response curves from 66.65 nM to 0.07 nM) were incubated for 30 min with cells in a soluble fashion, followed by an incubation with LDL coupled with Alexafluor-488 (at 1 μg/mL final) for 30 min. Finally, after 2 washes, cells were acquired on flow cytometer. The median MFI of Alexafluor-488 was used to plot the graphs. Benchmark antibody MOR044746 was used as positive control.
row,IC50,Binder
1,0.169 nM,B1
2,0.865 nM,B3
3,0.28 nM,B6

# Target: T1, human TREM2
# Experiment: cell-based or functional assay
Fold over isotype control at 66 nM,pSYK/TotSYK EC50 (nM),Binder
2.65 fold,4.05 nM,B4
2.51 fold,3.89 nM,B5
0.701 fold,–,B1
2.4 fold,9.7 nM,B2
1.93 fold,1.29 nM,B7
1.75 fold,–,B3
2.84 fold,1.09 nM,B6

# Target: T2, cynomolgus TREM2
# Experiment: MFI on CHO cells over-expressing cynoTREM2-DAP12
# Protocol: (§3) Cross-reactivity of anti-TREM2 antibodies to cynomolgus TREM2 (cynoTREM2) was assessed using CHO over-expressing cynoTREM2-DAP12 (Table 22). Benchmark antibodies, AB52 and PN-37012, were examined for comparison.
row,Binding to CHO-cTREM2 MFI,Binder
1,20400 MFI,B4
2,19700 MFI,B5
3,17700 MFI,B1
4,13400 MFI,B2
5,25500 MFI,B8
6,25500 MFI,B3
7,11900 MFI,B6

# Target: T2, cynomolgus TREM2
# Experiment: MFI on CHO cells over-expressing cynoTREM2-DAP12 vs CHO empty vector
# Protocol: as §3
row,MFI Fold change (CHO-cTREM2 over CHO-EV),Binder
1,388 fold,B4
2,334 fold,B5
3,395 fold,B1
4,495 fold,B2
5,602 fold,B8
6,602 fold,B3
7,251 fold,B6

# Target: T1, human TREM2
# Experiment: cell-based or functional assay
# Remark: another data set of the same source
row,Stabilization ratio (Mean of 2 replicates),Binder
1,0.6 ratio,B4
2,0.64 ratio,B5
3,0.96 ratio,B9
4,0.42 ratio,B1
5,0.46 ratio,B2
6,0.49 ratio,B3
7,0.69 ratio,B6

# Target: T1, human TREM2
# Experiment: flow cytometry, THP-1 WT vs THP-1 TREM2 KO cells, 10 ug/ml
# Protocol: (§4) In order to test specificity of selected antibodies to TREM2, binding was tested by flow cytometry on THP-1 TREM2 KO (clone, produced using CRISPR technology in house) and on THP-1 WT. Cells were incubated with selected anti-TREM2 antibodies (final concentration of 10 μg/ml) for 30 min at 4° C. After washing, bound antibodies were detected with a secondary anti-human IgG Fc PE-labelled for 30 min at 4° C. Fluorescence intensity was measured by flow cytometry.
row,MFI Fold change (THP-1 WT over THP-1 TREM2 KO),Binder
1,3.4 fold,B4
2,2.4 fold,B5
3,5.1 fold,B1
4,4.3 fold,B2
5,1.8 fold,B3
6,4.8 fold,B6

# Target: T3, mouse TREM2
# Experiment: MFI on CT26 cells over-expressing mouse TREM2 and DAP12
# Protocol: (§5) Cross-reactivity to mouse TREM2 was assessed using CT26 cells over-expressing mouse TREM2 and DAP12 (Table 23). Eight anti-TREM2 antibodies and both benchmark antibodies were considered cross-reactive to mouse TREM2 (MFI higher than isotype control and fold change of CT26-TREM2 over the CT26 Empty Vector higher than 5). The remaining anti-TREM2 antibodies were considered as being low to not cross-reactive (fold change less than 5). EOS006171 was not tested due to clear non-cross-reactivity preliminary data by octet (data not shown).
row,Binding to CT26-TREM2 MFI,Binder
1,6750 MFI,B10
2,6340 MFI,B4
3,6790 MFI,B5
4,8810 MFI,B8
5,4690 MFI,B6

# Target: T3, mouse TREM2
# Experiment: MFI on CT26 cells over-expressing mouse TREM2 and DAP12 vs CT26 empty vector
# Protocol: as §5
row,MFI Fold change (CT26-TREM2 over CT26-EV),Binder
1,21 fold,B10
2,15 fold,B4
3,15.8 fold,B5
4,33.6 fold,B8
5,17.4 fold,B6

# Target: T1, human TREM2
# Experiment: flow cytometry, THP-1 WT cells, 10 ug/ml
# Protocol: as §4
row,Fold over isotype control THP1 WT,Binder
1,2.7 fold,B4
2,2.1 fold,B5
3,2.7 fold,B1
4,6.6 fold,B2
5,7.3 fold,B3
6,3.5 fold,B6
